{"source": "patent US20190016816A1", "about": "(APTEVO RESEARCH AND DEVELOPMENT, published 2019)", "binders": {"B1": {"name": "biotinylated ALG.APV-210 (bispecific antibody)", "chain": "EVQLLESGGGLVQPGGSLRLSCAASGFTFSHGSMYWVRQAPGKGLEWVSSISSGSGSTYYADSVKGRFTISHDNSKNTLYLQMNSLRAEDTAVYYCARSSYYGSYYSIDYWGQGTLVTVSSGGGGSGGGGSGGGGSGGGGSDIQMTQSPSSLSASVGDRVTITCRASQSISSYLNWYQQKPGKAPKLLIYAASSLQSGVPSRFSGSGSGTDFTLTISSLQPEDFATYYCQQYYDNLPTFGQGTKLEIKEPKSSDKTHTCPPCPAPEAAGAPSVFLFPPKPKDTLMISRTPEVTCVVVDVSHEDPEVKFNWYVDGVEVHNAKTKPREEQYNSTYRVVSVLTVLHQDWLNGKEYKCAVSNKALPAPIEKTISKAKGQPREPQVYTLPPSRDELTKNQVSLTCLVKGFYPSDIAVEWESNGQPENNYKTTPPVLDSDGSFFLYSKLTVDKSRWQQGNVFSCSVMHEALHNHYTQKSLSLSPGSGGGGSGGGGSGGGGSPSEVQLLESGGGLVQPGGSLRLSCAASGFTFSSYAMSWVRQAPGKCLEWVSAISGSGGSTYYADSVKGRFTISRDNSKNTLYLQMNSLRAEDTAVYYCARYYGGYYSAWMDYWGQGTLVTVSSGGGGSGGGGSGGGGSGGGGSDIQMTQSPSSLSASVGDRVTITCRASQSISSFLNWYQQKPGKAPKLLIYAASSLQSGVPSRFSGSGSGTDFTLTISSLQPEDSATYYCQQTYGYLHTFGCGTKLEIKR", "notes": "also called ALG.APV-210 (biotinylated for FACS detection)"}}, "biological_target": "T1, cynomolgus CD137 on cells (cynomolgus macaque, UniProt A9YYE7 24-254)", "T1 construct": "whole, on cells; also called CHO-K1/cynomolgus CD137 cell line; cynomolgus monkey CD137 on CD3-stimulated primary CD8 T cells", "T1 sequence (A9YYE7 entry or part of it)": "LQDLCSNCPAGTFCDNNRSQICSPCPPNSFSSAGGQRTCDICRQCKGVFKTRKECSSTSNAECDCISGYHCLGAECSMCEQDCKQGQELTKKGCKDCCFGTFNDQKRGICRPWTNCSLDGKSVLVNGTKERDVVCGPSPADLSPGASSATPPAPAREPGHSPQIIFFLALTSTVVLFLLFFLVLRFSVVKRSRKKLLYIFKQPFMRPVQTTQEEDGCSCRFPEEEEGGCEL", "assay": "flow cytometry, CD8 T cells gated from CD3-stimulated cynomolgus PBMC, biotinylated antibody + streptavidin-APC, exp 1, n=3 donors", "procedure": "Following 48 h of incubation with or without CD3, human and cynomolgus PBMC were harvested, pooled, recounted and diluted in FACS buffer (PBS+0.5% BSA, 0.05% NaN₃) to a concentration of 5×10⁶ cells/mL. 50 μL (0.25×10⁶ cells) of cell solution was added to a 96-well FACS staining plate (Falcon #351190). Following 10 min of Fc-blocking in RT using Beriglobin (hIgG, 200 μg/mL), cells were washed in FACS buffer and then incubated for 1 h in 4° C. with 100 μL of the biotinylated ALG.APV-210 or negative control. […] Cells were analysed for ALG.APV-210 binding using flow cytometry by gating on viable, single cells expressing CD3 and CD8. MFI values (FMO subtracted) from 2 independent experiments as well as normalized pooled data from 2 experiments and EC₅₀-values were determined and plotted using GraphPad Prism 7, non-linear regression log (agonist) vs. normalized response—variable slope, n=6 donors/group.\nIn ELISA tests, the binding of biotinylated ALG.APV-210 to CD137 was similar to that of the non-biotinylated ALG.APV-210 (0.6 nM vs. 0.7 nM). The binding (EC₅₀) of the biotinylated ALG.APV-210 to its immunomodulatory target CD137 when expressed on activated primary human and cynomolgus CD8 T cells from CD3 stimulated PBMC was assessed and compared between the two species as well as to unstimulated cells. […]"}
{"binder": "B1", "values": [{"measurement": "EC50 (read off the curve)", "value": "~0.3", "unit": "nM"}]}
